5 molecules from patent US20240352445A1 (published 2024) can be followed below.

Changes are numbered by the printed parent chain. Like-named read-outs stand apart in the source and are kept apart here.

The target of assay [1] is SARS-CoV-2 spike protein trimer, Epsilon (B.1.429) variant (SARS-CoV-2, UniProt P0DTC2 16-1213).
In assay [2] the target is SARS-CoV-2 spike protein trimer, Gamma (P.1) variant (SARS-CoV-2, UniProt P0DTC2 16-1213).
Assay [3] concerns the target SARS-CoV-2 spike protein trimer, Alpha (B.1.1.7) variant (SARS-CoV-2, UniProt P0DTC2 16-1213).
The target of assay [4] is T1, SARS-CoV-2 spike protein trimer, Beta (B.1.351) variant (SARS-CoV-2, UniProt P0DTC2 16-1213).
Assay [5] has as its target SARS-CoV-2 spike protein trimer, Kappa (B.1.617.1) variant (SARS-CoV-2, UniProt P0DTC2 16-1213).
Assay [6] addresses T1, SARS-CoV-2 spike protein trimer, Beta …. Description: BLI. On the technique in general: In BLI a coated tip is dipped into the sample, and binding shifts an interference pattern.
Assay [7] shares this target. Description: BLI. The source holds these as a separate data set.
The target of assay [8] is T2, SARS-CoV-2 spike protein trimer, Omicron (B.1.1.529) variant (SARS-CoV-2, UniProt P0DTC2 16-1213). Description: flow.
The target in assay [9] is T2, SARS-CoV-2 spike protein trimer, …. Description: BLI.
Assay [10] shares this target. Briefly: BLI. This is another data set of the same source.
For assay [11] the target is unchanged. Briefly: BLI. This is another data set of the same source.
In assay [12] the target is SARS-CoV-2 spike protein trimer, Omicron (BA.2) variant (SARS-CoV-2, UniProt P0DTC2 16-1213). Description: ELISA. Background: ELISA stands for enzyme-linked immunosorbent assay.
Assay [13] addresses SARS-CoV-2 spike protein trimer, Delta (B.1.617.2) variant (SARS-CoV-2, UniProt P0DTC2 16-1213). Briefly: ELISA.
Assay [14] addresses T2, SARS-CoV-2 spike protein trimer, …. Description: ELISA.

B1: rabbit monoclonal antibody C-A11 (antibody, V domains shown)
VH: QSLEESGGRLVTPGTPLTLTCTVSGFSLSTYAMSWVRQAPGKGLEWIGVIASNADTYYASWAKGRITISKTSTTVDLKITSPTTEDTATYFCARHPGSAGYGYAVYYAMDPWGPGTLVTVSS
VL: AIEMTQSPSSLAASVGDTVTITCKASEDIRYGLNWYQQKLGIAPKLLIYGANTLEAGVPSRFSGSGSETDYTLTISSVQAEDAGIYYCQQGYSTPLTFGAGTKVEIK
Take B1: the IC50 (usually the midpoint of a concentration-inhibition curve) in assay [1] was 0.00314 µg/mL; in assay [2], 0.0548 µg/mL; in assay [3], 0.0495 µg/mL; in assay [4] it was 0.0218 µg/mL; in assay [5] it was 0.0141 µg/mL; in assay [8] it was above 0.5 µg/mL. Also, the Kd in assay [6] and in [7] was 0.0404 nM throughout.

B2: LxA3-E4 (antibody, V domains shown)
VH: EVQLVESGGGLVQPGGSLRLSCEASGFTFPNQAMTWVRQAPGKGLEWIGVIASNADTYYASWAKGRFTISRDNSKNTLYLQMNSLRAEDTAVYYCARHPGSAGYGYGHYYAMDPWGQGTLVTVSS
VL: DIQMTQSPSSLSASVGDRVTITCQASENIRYAINWYQQKPGKAPKLLIYGATYRDEGVPSRFSGSGSGTDYTLTISSLQPEDFATYYCQQGYVVPNSFGGGTKVEIK
Take B2: the Kd – broadly, the free concentration of one partner at which half of the binding sites on the other are occupied at equilibrium, for simple one-to-one binding – in [9] is below 0.001 nM.

B3: humanized antibody hN2F (antibody, V domains shown)
VH: B2 VH with E23T, A24V, T28S, F29L, P30S, N31T, Q32Y, T35S, G107A, H108V
VL: DIQMTQSPSSLSASVGDRVTITCKASEDIRYGLNWYQQKPGKAPKLLIYGANTLEAGVPSRFSGSGSGTDFTLTISSLQPEDFATYYCQQGYSTPLTFGGGTKVEIK
As to B3, the IC50 is 0.0101 µg/mL in assay [1]; 2.18 µg/mL in assay [2]; 0.0561 µg/mL in assay [3]; 1.29 µg/mL in [4]; 0.0589 µg/mL in assay [5]; above 0.5 µg/mL in assay [8].

B4: LxA3-B11 (antibody, V domains shown)
VH: B2 VH
VL: DIQMTQSPSSLSASVGDRVTITCLASEQAHYAINWYQQKPGKAPKLLIYGTSLLAEGVPSRFSGSGSGTDFTLTISSLQPEDFATYYCQQGYIVPISFGGGTKVEIK
As to B4, in assay [9], the Kd is 0.0449 nM.

B5: humanized antibody hN2Y (antibody, V domains shown)
VH: B2 VH with E23T, A24V, T28S, F29L, P30S, N31T, Q32Y, T35S, G107A, H108V
VL: B3 VL with F71Y
As for B5, the concentration for half-maximal inhibition (IC50) in assay [1] came to 0.0184 µg/mL; in assay [2], 0.0588 µg/mL; in assay [3], 0.0704 µg/mL; in [4] it was 0.0347 µg/mL; in assay [5], 0.0117 µg/mL; in [12] it was 0.159 µg/mL. The IC50 in [13] is 0.00419 µg/mL; in assay [14], 0.44 µg/mL. Further, the dissociation constant (Kd) in assay [10] was 0.123 nM; in assay [6], 0.193 nM; in assay [11], 0.123 nM; in [7] it was 0.193 nM.
